Ends that are not written are not given here. * marks the point of attachment. Biotin = O=C1N[C@H]2[C@H](CS[C@H]2CCCCC(=O)*)N1
T1: human lactadherin (human, UniProt Q08431 24-387)
T1 sequence (looked up): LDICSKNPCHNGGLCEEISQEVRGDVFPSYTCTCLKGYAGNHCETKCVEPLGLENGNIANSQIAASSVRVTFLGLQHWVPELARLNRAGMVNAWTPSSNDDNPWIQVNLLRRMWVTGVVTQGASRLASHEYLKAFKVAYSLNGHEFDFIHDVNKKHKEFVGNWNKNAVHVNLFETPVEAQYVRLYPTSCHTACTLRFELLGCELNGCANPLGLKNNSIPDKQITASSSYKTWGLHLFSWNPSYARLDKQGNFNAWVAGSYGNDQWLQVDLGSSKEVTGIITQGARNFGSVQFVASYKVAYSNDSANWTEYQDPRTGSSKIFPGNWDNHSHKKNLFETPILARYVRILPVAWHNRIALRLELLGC

T2: peptide … (SEQ ID NO:51), N-terminally biotinylated (human)
T2 sequence (peptide, N-terminally biotinylated): EISQEVRGDVFPSY

T3: peptide EISQEVAGDVFPSY (SEQ ID NO:74), N-terminally biotinylated (human)
T3 peptide: Biotin-EISQEVAGDVFPSY

T4: peptide EISQEVRADVFPSY (SEQ ID NO:75), N-terminally biotinylated (human)
T4 peptide: Biotin-EISQEVRADVFPSY

T5: peptide EISQEVRGAVFPSY (SEQ ID NO:76), N-terminally biotinylated (human)
T5 peptide: Biotin-EISQEVRGAVFPSY

T6: peptide EISQEVAADVFPSY (SEQ ID NO:77), N-terminally biotinylated (human)
T6 peptide: Biotin-EISQEVAADVFPSY

T7: peptide EISQEVRAAVFPSY (SEQ ID NO:78), N-terminally biotinylated (human)
T7 peptide: Biotin-EISQEVRAAVFPSY

T8: peptide EISQEVAGAVFPSY (SEQ ID NO:79), N-terminally biotinylated (human)
T8 peptide: Biotin-EISQEVAGAVFPSY

T9: peptide EISQEVAAAVFPSY (SEQ ID NO:80), N-terminally biotinylated (human)
T9 peptide: Biotin-EISQEVAAAVFPSY

T10: peptide NGGLCEEISQEVRG (SEQ ID NO:81), N-terminally biotinylated (human)
T10 construct: Human lactadherin 14-mer with part of the RGD domain at the C-terminus
T10 peptide: Biotin-NGGLCEEISQEVRG

T11: peptide HNGGLCEEISQEVR (SEQ ID NO:82), N-terminally biotinylated (human)
T11 construct: Human lactadherin 14-mer with part of the RGD domain at the C-terminus
T11 peptide: Biotin-HNGGLCEEISQEVR

T12: peptide CHNGGLCEEISQEV (SEQ ID NO:83), N-terminally biotinylated (human, cysteine pairing not given here)
T12 peptide: Biotin-CHNGGLCEEISQEV

T13: peptide GDVFPSYTCTCLKG (SEQ ID NO:84), N-terminally biotinylated (human, cysteine pairing not given here)
T13 construct: Human lactadherin 14-mer with part of the RGD domain at the N-terminus
T13 peptide: Biotin-GDVFPSYTCTCLKG

T14: peptide DVFPSYTCTCLKGY (SEQ ID NO:85), N-terminally biotinylated (human, cysteine pairing not given here)
T14 construct: Human lactadherin 14-mer with part of the RGD domain at the N-terminus
T14 peptide: Biotin-DVFPSYTCTCLKGY

T15: peptide VFPSYTCTCLKGYA (SEQ ID NO:86), N-terminally biotinylated (human, cysteine pairing not given here)
T15 peptide: Biotin-VFPSYTCTCLKGYA


What was measured:
human lactadherin = biological target: T1, human lactadherin; experiment: cell-based or functional assay
[1] = biological target: T2, peptide … (SEQ ID NO:51), N-terminally biotinylated (human); experiment: ELISA, biotin-peptide on neutravidin plate, antibody 1 ug/ml
[2] = biological target: T3, peptide EISQEVAGDVFPSY (SEQ ID NO:74), …; experiment: as above
[3] = biological target: T4, peptide EISQEVRADVFPSY (SEQ ID NO:75), …; experiment: as above
[4] = biological target: T5, peptide EISQEVRGAVFPSY (SEQ ID NO:76), …; experiment: as above
[5] = biological target: T6, peptide EISQEVAADVFPSY (SEQ ID NO:77), …; experiment: as above
[6] = biological target: T7, peptide EISQEVRAAVFPSY (SEQ ID NO:78), …; experiment: as above
[7] = biological target: T8, peptide EISQEVAGAVFPSY (SEQ ID NO:79), …; experiment: as above
[8] = biological target: T9, peptide EISQEVAAAVFPSY (SEQ ID NO:80), …; experiment: as above
[9] = biological target: T10, peptide NGGLCEEISQEVRG (SEQ ID NO:81), …; experiment: as above
[10] = biological target: T11, peptide HNGGLCEEISQEVR (SEQ ID NO:82), …; experiment: as above
[11] = biological target: T12, peptide CHNGGLCEEISQEV (SEQ ID NO:83), …; experiment: as above
[12] = biological target: T13, peptide GDVFPSYTCTCLKG (SEQ ID NO:84), …; experiment: as above
[13] = biological target: T14, peptide DVFPSYTCTCLKGY (SEQ ID NO:85), …; experiment: as above
[14] = biological target: T15, peptide VFPSYTCTCLKGYA (SEQ ID NO:86), …; experiment: as above

Binder	inhibition of SKOV-3 cell adhesion to coated human lactadherin, antibody at 5 ug/mL (human lactadherin) [%]	absorbance 450 nm minus 540 nm [1] [absorbance]	absorbance 450 nm minus 540 nm [2] [absorbance]	absorbance 450 nm minus 540 nm [3] [absorbance]	absorbance 450 nm minus 540 nm [4] [absorbance]	absorbance 450 nm minus 540 nm [5] [absorbance]	absorbance 450 nm minus 540 nm [6] [absorbance]	absorbance 450 nm minus 540 nm [7] [absorbance]	absorbance 450 nm minus 540 nm [8] [absorbance]	absorbance 450 nm minus 540 nm [9] [absorbance]	absorbance 450 nm minus 540 nm [10] [absorbance]	absorbance 450 nm minus 540 nm [11] [absorbance]	absorbance 450 nm minus 540 nm [12] [absorbance]	absorbance 450 nm minus 540 nm [13] [absorbance]	absorbance 450 nm minus 540 nm [14] [absorbance]	IC50 (nM), inhibition of cell adhesion to human lactadherin (human lactadherin) [nM]	decrease of SKOV-3 cell migration towards lactadherin, antibody at 5 ug/mL (human lactadherin) [%]
anti-lactadherin antibody 346B6 (antibody, IgG1, V domains shown, VH identical to that of 311A7; also called hybridoma 346B6; LMBP 9490CB) VH: EFQLQQSGPELVKPGASVRISCKASGYSFTDYNMNWVKQSDGKTLEWIGVINPDYGTTNNNQRFRGKATLTLDLSSSTAYMQLNSLTSEDSAVYYCARGGDYGAGYALDYWGQGTSVTVSS VL: QIVLTQSPAIMSASPGEKVTMTCSASSSVSYMYWYQQKPGSSPRLLIYDTSNLASGVPVRFSGSGSGTSYSLTISRMEAEDAATYYCQQWSSYPPTFGAGTKLELKR	25	1	0.02	0.01	0.02	0.01	0.02	0.07	0.01	0.02	0.02	0.02	0.02	0.03	0.03		
chimeric 311A7 antibody (antibody, V domains shown) VH: EFQLQQSGPELVKPGASVRISCKASGYSFTDYNMNWVKQSDGKTLEWIGVINPDYGTTNNNQRFRGKATLTLDLSSSTAYMQLNSLTSEDSAVYYCARGGDYGAGYALDYWGQGTSVTVSS VL: QIVLTQSPAIMSASPGEKVTITCSASSSVSYMYWFQQKPGTSPKLWIYSTSNLASGVPARFSGSGSGTSYSLTISRMEAEDAATYYCQQRSSYPRTFGGGTKLEIKR																7.36	
anti-lactadherin antibody 311A7 (antibody, IgG1, V domains shown, also called murine 311A7; hybridoma 311A7) VH: EFQLQQSGPELVKPGASVRISCKASGYSFTDYNMNWVKQSDGKTLEWIGVINPDYGTTNNNQRFRGKATLTLDLSSSTAYMQLNSLTSEDSAVYYCARGGDYGAGYALDYWGQGTSVTVSS VL: QIVLTQSPAIMSASPGEKVTITCSASSSVSYMYWFQQKPGTSPKLWIYSTSNLASGVPARFSGSGSGTSYSLTISRMEAEDAATYYCQQRSSYPRTFGGGTKLEIKR	> 70	1.47	0.02	0.01	0.01	0.01	0.02	0.05	0.02	0.01	0.02	0.02	0.02	0.02	0.02	7.36	> 80
huMc3 antibody (antibody, V domains shown) VH: EVQLVQSGAEVKKPGASVKVSCKASGYSFTGYTMHWVKQSPGMNLEWIGLINPYNGGTVYNQKFQDKATLTVDKSTSTAYMELSSLRSEDTAVYFCARRWRYTMDYWGQGTLVTVSS VL: DIVMTQSPDSLAVSLGERATITCKASQDVSIGVAWYQQKPGQSPKLLIYSASSRYTGVPDRFSGSGSGTDFTLTISSLQAEDVAVYYCQQHYTSPFTFGSGTKVEIK	> 70		0.04	0.03	0.06	0.05	0.06	0.04	0.04	0.09	0.08	0.09	0.08	0.09	0.07	6.48	

Source: patent publication WO2013139956A1 (dated 2013)
